Source: patent US7824897B2, “Modified tumor necrosis factor-alpha converting enzyme and methods of use thereof” (Schering Corp., priority 2002, dated 2010)

Assays:
Format in all cases: physicochemical
TACE [1] = target: T1, TACE (Homo sapiens, UniProt P78536, N452Q/S266A); assay: Stability of TACE (auto-proteolysis) on storage at 4 degrees Celsius, SDS-PAGE; conditions: TACE 15 mg/ml, seven days
T1 construct: Only the catalytic domain was purified; GS linker + His6 (C); made in house; host or cells: Trichoplusia ni (High5) cells, baculovirus
Experimental: Stability of TACE: The stability of TACE was examined under several buffer conditions at pH 7.5. Twenty microliter aliquots of TACE at 15 mg/ml were desalted over P-6 spin columns (BioRAD, Hercules, Calif.) that had been equilibrated in: • (a) 25 mM Tris, 0.15M NaCl; • (b) 25 mM Tris; or • (c) 25 mM Tris plus N-{D,L-2-(hydroxyaminocarbonyl)methyl-4-methylpentanoyl}-L-3-amino-2-dimethylbutanoyl-L-alanine, 2-(amino)ethyl amide.
The stability of the TACE protein was evaluated after storage at 4 degrees Celsius for seven days. After incubating the TACE polypeptide under the three conditions listed above, Sodium Dodecyl Sulfate PolyAcrylamide Gel Electrophoresis (SDS-PAGE) was performed. […] Moreover, the sequencing data indicated the presence of a single cleavage site at 352Y-V353 of SEQ ID NO: 2.

TACE [2] = target: T1, TACE; assay: Stability of TACE and TACE mutants under different storage conditions, SDS-PAGE; conditions: 25 mM Tris pH 7.5, 4 degrees Celsius, 3 hours
Experimental: (§1) Stability of TACE and TACE mutants: To test for stability under different storage conditions, 20 ul of TACE protein, at 15 mg/ml, was desalted over BIO-RAD P-6 columns equilibrated at pH 7.5 in: • (a) 25 mM Tris, 0.15M NaCl; • (b) 25 mM Tris+1 mM N-{D,L-2-(hydroxyaminocarbonyl)methyl-4-methylpentanoyl}-L-3-amino-2-dimethylbutanoyl-L-alanine, 2-(amino)ethyl amide; or • (c) 25 mM Tris.
(§2) One microliter aliquots were analyzed by SDS-PAGE after storing them for 3 hours, or 17 days at 4 degrees Celsius. […] In direct contrast, all constructs were stable in either 0.15M NaCl, or 1 mM N-{D,L-2-(hydroxyaminocarbonyl)methyl-4-methylpentanoyl}-L-3-amino-2-dimethylbutanoyl-L-alanine, 2-(amino)ethyl amide.

TACE [3] = assay: as above; conditions: 25 mM Tris pH 7.5, 4 degrees Celsius, 17 days
Experimental: as §1, §2

Molecule	SDS-PAGE bands after storage with inhibitor (TACE [1]; 25 mM Tris pH 7.5, 1:1.5 molar ratio enzyme:inhibitor, 4 degrees Celsius)	SDS-PAGE bands after storage without high salt or inhibitor (TACE [1]; 25 mM Tris pH 7.5, 4 degrees Celsius)	Proteolysis by SDS-PAGE in the absence of salt (TACE [2])	Proteolysis by SDS-PAGE in the absence of salt (TACE [3])
CC(C)CC(CC(=O)NO)C(=O)N[C@H](C(=O)N[C@@H](C)C(=O)NCCN)C(C)(C)C (stereo partly drawn) [N-{D,L-2-(hydroxyaminocarbonyl)methyl-4-methylpentanoyl}-L-3-amino-2-dimethylbutanoyl-L-alanine, 2-(amino)ethyl amide, reference compound]	only a single band having a molecular weight of 30 Kd was observed	–	–	–
TACE: native tumor necrosis factor-alpha converting enzyme catalytic domain (SEQ ID NO: 6), with GS linker and polyHis tag (protein, listed as Homo sapiens, GS linker and polyHis tag) RADPDPMKNTCKLLVVADHRFYRYMGRGEESTTTNYLIELIDRVDDIYRNTAWDNAGFKGYGIQIEQIRILKSPQEVKPGEKHYNMAKSYPNEEKDAWDVKMLLEQFSFDIAEEASKVCLAHLFTYQDFDMGTLGLAYVGSPRANSHGGVCPKAYYSPVGKKNIYLNSGLTSTKNYGKTILTKEADLVTTHELGHNFGAEHDPDGLAECAPNEDQGGKYVMYPIAVSGDHENNKMFSQCSKQSIYKTIESKAQECFQERSNKV	–	two additional fainter bands	substantial proteolysis	completely proteolyzed
V353G: modified TACE catalytic domain, Val353 replaced with glycine (SEQ ID NO: 20) (protein, listed as Homo sapiens) RADPDPMKNTCKLLVVADHRFYRYMGRGEESTTTNYLIELIDRVDDIYRNTAWDNAGFKGYGIQIEQIRILKSPQEVKPGEKHYNMAKSYPNEEKDAWDVKMLLEQFSFDIAEEASKVCLAHLFTYQDFDMGTLGLAYGGSPRANSHGGVCPKAYYSPVGKKNIYLNSGLTSTKNYGKTILTKEADLVTTHELGHNFGAEHDPDGLAECAPNEDQGGKYVMYPIAVSGDHENNKMFSQCSKQSIYKTIESKAQECFQERSNKV	–	–	–	highly resistant to auto-proteolysis
